B1: HEEH_KT_rd6_3546 (parent)
chain: SEEDKEREHWERLNRDFELRVLDTTFIAHHAEEVIKLLRWLEK

Variants of: B1
Assay: folding stability dG (cDNA display proteolysis); higher = more stable
Settings: PBS, room temperature

Row | Variant | folding stability dG [kcal/mol]
1 | L22T | 0.948
2 | L22V | 1.18
3 | L22W | 1.35
4 | L22Y | 1.67
5 | D23A | 2.35
6 | D23E | 1.29
7 | D23F | 3.18
8 | D23G | 1.64
9 | D23H | 2.01
10 | D23I | 3.03
11 | D23K | 1.6
12 | D23L | 2.86
13 | D23M | 2.76
14 | D23N | 1.45
15 | D23P | 1.35
16 | D23Q | 1.64
17 | D23R | 1.87
18 | D23S | 1.94
19 | D23T | 2.27
20 | D23V | 3
21 | D23W | 2.85
22 | D23Y | 2.92
23 | T24A | 1.41
24 | T24D | 0.925

Row | Variant | folding stability dG [kcal/mol]
25 | T24E | 0.926
26 | T24F | 2.01
27 | T24G | 0.995
28 | T24H | 1.13
29 | T24I | 2.24
30 | T24K | 1.07
31 | T24L | 2.19
32 | T24M | 1.82
33 | T24N | 1.28
34 | T24P | 1.22
35 | T24Q | 1.02
36 | T24R | 1.25
37 | T24S | 1.06
38 | T24V | 2.13
39 | T24W | 2.13
40 | T24Y | 1.79
41 | T25A | 1.46
42 | T25C | 1.75
43 | T25D | 1.2
44 | T25E | 1.31
45 | T25F | 2.35
46 | T25G | 0.905
47 | T25H | 1.29
48 | T25I | 1.7

Row | Variant | folding stability dG [kcal/mol]
49 | T25K | 1.16
50 | T25L | 2.18
51 | T25M | 1.36
52 | T25N | 1.26
53 | T25P | 0.992
54 | T25Q | 0.911
55 | T25R | 1.41
56 | T25S | 1.52
57 | T25V | 1.61
58 | T25W | 2.16
59 | T25Y | 1.65
60 | F26A | 0.696
61 | F26D | 0.665
62 | F26E | 0.588
63 | F26G | 0.568
64 | F26H | 0.83
65 | F26I | 0.875
66 | F26K | 0.504
67 | F26L | 0.925
68 | F26M | 0.674
69 | F26N | 0.663
70 | F26P | 0.393
71 | F26Q | 0.576
72 | F26R | 0.974

Row | Variant | folding stability dG [kcal/mol]
73 | F26S | 0.703
74 | F26T | 0.642
75 | F26V | 0.759
76 | F26W | 1.7
77 | F26Y | 1.04
78 | I27A | 0.784
79 | I27C | 2.33
80 | I27D | 0.608
81 | I27E | 0.508
82 | I27F | 1.58
83 | I27G | 0.669
84 | I27H | 0.648
85 | I27K | 0.613
86 | I27L | 1.37
87 | I27M | 1.12
88 | I27N | 0.776
89 | I27P | 0.57
90 | I27Q | 0.497
91 | I27R | 0.466
92 | I27S | 0.654
93 | I27T | 0.562
94 | I27V | 0.996
95 | I27W | 1.88
96 | I27Y | 1.25

Row | Variant | folding stability dG [kcal/mol]
97 | A28C | 2.23
98 | A28D | 0.777
99 | A28E | 0.888
100 | A28F | 1.94
101 | A28G | 1.01
102 | A28H | 0.802
103 | A28I | 1.82
104 | A28K | 1.29
105 | A28L | 1.99
106 | A28M | 1.84
107 | A28N | 0.915
108 | A28P | 0.699
109 | A28Q | 0.99
110 | A28R | 1.48
111 | A28S | 1.15
112 | A28T | 1.2
113 | A28V | 1.51
114 | A28W | 2.14
115 | A28Y | 1.64
116 | H29A | 1.49
117 | H29C | 1.85
118 | H29D | 1.05
119 | H29E | 1.45
120 | H29F | 2.21

Row | Variant | folding stability dG [kcal/mol]
121 | H29G | 1.17
122 | H29I | 2.5
123 | H29K | 1.77
124 | H29L | 1.59
125 | H29M | 1.98
126 | H29N | 1.3
127 | H29P | 0.857
128 | H29Q | 1.23
129 | H29R | 1.68
130 | H29S | 1.59
131 | H29T | 1.35
132 | H29V | 1.61
133 | H29W | 2.01
134 | H29Y | 1.94
135 | H30A | 2.04
136 | H30C | 1.6
137 | H30D | 0.85
138 | H30E | 0.893
139 | H30F | 2.3
140 | H30G | 1.44
141 | H30I | 2.09
142 | H30K | 1.13
143 | H30L | 2.38
144 | H30M | 2.34

Row | Variant | folding stability dG [kcal/mol]
145 | H30N | 1.09
146 | H30P | 0.902
147 | H30Q | 1.06
148 | H30R | 1.07
149 | H30S | 1.23
150 | H30T | 1.72
151 | H30V | 2.38
152 | H30W | 2.69
153 | H30Y | 2.05
154 | A31C | 2.24
155 | A31D | 0.6
156 | A31E | 0.663
157 | A31F | 1.96
158 | A31G | 0.934
159 | A31H | 0.66
160 | A31I | 2.19
161 | A31K | 1.09
162 | A31L | 1.94
163 | A31M | 1.79
164 | A31N | 0.698
165 | A31P | 0.618
166 | A31Q | 0.833
167 | A31R | 1.07
168 | A31S | 0.872

Row | Variant | folding stability dG [kcal/mol]
169 | A31T | 1.33
170 | A31V | 2.1
171 | A31W | 2.28
172 | A31Y | 1.61
173 | E32A | 1.93
174 | E32C | 1.31
175 | E32D | 1.23
176 | E32F | 2.21
177 | E32G | 1.2
178 | E32H | 1.42
179 | E32I | 1.73
180 | E32K | 1.54
181 | E32L | 1.92
182 | E32M | 1.72
183 | E32N | 1.26
184 | E32P | 1.25
185 | E32Q | 1.29
186 | E32R | 1.37
187 | E32S | 1.42
188 | E32T | 1.43
189 | E32V | 1.79
190 | E32W | 2.1
191 | E32Y | 1.9
192 | E33A | 1.74

Row | Variant | folding stability dG [kcal/mol]
193 | E33C | 2.69
194 | E33D | 1.34
195 | E33F | 2.31
196 | E33G | 1.47
197 | E33H | 1.41
198 | E33I | 2.31
199 | E33K | 1.62
200 | E33L | 2.05
201 | E33M | 2.06
202 | E33N | 1.45
203 | E33P | 0.926
204 | E33Q | 1.46
205 | E33R | 1.46
206 | E33S | 1.44
207 | E33T | 1.47
208 | E33V | 2.06
209 | E33W | 2.45
210 | E33Y | 2.16
211 | V34A | 1.06
212 | V34C | 1.54
213 | V34D | 0.006
214 | V34E | 0.228
215 | V34F | 1.61
216 | V34G | 0.3

Row | Variant | folding stability dG [kcal/mol]
217 | V34H | 0.255
218 | V34I | 1.75
219 | V34K | 0.1
220 | V34L | 1.57
221 | V34M | 1.2
222 | V34N | -0.04
223 | V34Q | -0.202
224 | V34R | 0.162
225 | V34S | 0.133
226 | V34T | 0.62
227 | V34W | 1.47
228 | V34Y | 1.06
229 | I35A | 1.03
230 | I35C | 1.88
231 | I35D | 0.67
232 | I35E | 0.843
233 | I35F | 1.49
234 | I35G | 0.628
235 | I35H | 0.843
236 | I35K | 0.927
237 | I35L | 1.47
238 | I35M | 1.33
239 | I35N | 0.739
240 | I35P | -0.407

Row | Variant | folding stability dG [kcal/mol]
241 | I35Q | 0.925
242 | I35R | 1.12
243 | I35S | 0.508
244 | I35T | 0.787
245 | I35V | 1.17
246 | I35W | 1.59
247 | I35Y | 1.33
248 | K36A | 1.56
249 | K36C | 2.09
250 | K36D | 1
251 | K36E | 0.928
252 | K36F | 2.13
253 | K36G | 1.14
254 | K36H | 1.24
255 | K36I | 2.02
256 | K36L | 1.92
257 | K36M | 1.93
258 | K36N | 1.28
259 | K36P | 0.419
260 | K36Q | 1.23
261 | K36R | 1.51
262 | K36S | 1.23
263 | K36T | 1.28
264 | K36V | 1.87

Row | Variant | folding stability dG [kcal/mol]
265 | K36W | 1.87
266 | K36Y | 1.82
267 | L37A | 0.846
268 | L37D | -0.437
269 | L37E | -0.07
270 | L37F | 1.62
271 | L37G | 0.136
272 | L37H | 0.36
273 | L37I | 1.23
274 | L37K | 0.138
275 | L37M | 1.09
276 | L37N | 0.031
277 | L37P | -0.172
278 | L37Q | 0.133
279 | L37R | 0.273
280 | L37S | 0.285
281 | L37T | 0.61
282 | L37V | 0.922
283 | L37W | 1.63
284 | L37Y | 1.23
285 | L38A | 0.316
286 | L38C | 1.78
287 | L38D | -0.361
288 | L38E | -0.1

Row | Variant | folding stability dG [kcal/mol]
289 | L38F | 1.39
290 | L38G | -0.072
291 | L38H | 0.371
292 | L38I | 1.09
293 | L38K | 0.405
294 | L38M | 0.931
295 | L38N | 0.045
296 | L38P | -0.432
297 | L38Q | 0.257
298 | L38R | 0.8
299 | L38S | 0.079
300 | L38T | 0.188
301 | L38V | 0.9
302 | L38W | 1.61
303 | L38Y | 0.971
304 | R39A | 0.866
305 | R39D | 0.762
306 | R39E | 0.969
307 | R39F | 1.7
308 | R39G | 0.742
309 | R39H | 1.17
310 | R39I | 1.77
311 | R39K | 1.28
312 | R39L | 1.59

Row | Variant | folding stability dG [kcal/mol]
313 | R39M | 1.21
314 | R39N | 0.829
315 | R39P | 0.359
316 | R39Q | 0.982
317 | R39S | 1.01
318 | R39T | 1.37
319 | R39V | 1.33
320 | R39W | 1.55
321 | R39Y | 1.54
322 | W40A | 0.156
323 | W40C | 1.55
324 | W40D | 0.502
325 | W40E | 0.585
326 | W40F | 1.1
327 | W40G | 0.388
328 | W40H | 0.768
329 | W40I | 1.31
330 | W40K | 0.6
331 | W40L | 1.01
332 | W40M | 1.11
333 | W40N | 0.617
334 | W40P | -0.109
